Legend:
HeLa Kyoto [1] = experiment: melting temperature (median over replicates), in situ; higher = more thermally stable
HeLa Kyoto [2] = experiment: solubility change mitosis vs G1/S (difference of NP-40 vs SDS log2 ratios) (log2 ratio difference); higher = more soluble in mitosis
HeLa Kyoto [3] = experiment: solubility in G1/S (NP-40 vs SDS abundance) (log2 ratio); higher = more soluble; conditions: cell cycle stage: G1/S
HeLa Kyoto [4] = experiment: thermal stability score vs G1/S (z-score of summed log2 fold changes over temperatures); higher = more thermally stable than in G1/S
[5] = cell cycle stage: early G1 (4.5 h after nocodazole release)
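For melting temperature (median over replicates), in situ in this document: HeLa Kyoto cells synchronized by double thymidine or nocodazole block, proteins quantified by TMT10plex mass spectrometry, three independent biological replicates.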
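For solubility change mitosis vs G1/S (difference of NP-40 vs SDS log2 ratios) in this document: synchronized HeLa Kyoto cells (double thymidine block for G1/S, nocodazole release for mitosis), protein amounts in NP-40 versus SDS lysates quantified by mass spectrometry, three biological replicates.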
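For solubility in G1/S (NP-40 vs SDS abundance) in this document: HeLa Kyoto cells arrested at G1/S by double thymidine block, proteins quantified by TMT10plex mass spectrometry in mild NP-40 versus SDS extracts, three biological replicates.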
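For thermal stability score vs G1/S (z-score of summed log2 fold changes over temperatures) in this document: synchronized HeLa Kyoto cells, proteins quantified by TMT10plex mass spectrometry, three biological replicates, mitosis taken 0.5 h after nocodazole release, G1/S directly after double thymidine block.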

Substance	melting temperature (HeLa Kyoto [1]; cell cycle stage: G1/S) [°C]	melting temperature (HeLa Kyoto [1]; cell cycle stage: mitosis) [°C]	solubility change mitosis (log2) (HeLa Kyoto [2])	solubility in G1/S (log2) (HeLa Kyoto [3])	thermal stability score (HeLa Kyoto [4]; [5])	thermal stability score (HeLa Kyoto [4]; cell cycle stage: mitosis)
MDPFTEKLLERTRARRENLQRKMAERPTAAPRSMTHAKRARQPLSEASNQQPLSGGEEKSCTKPSPSKKRCSDNTEVEVSNLENKQPVESTSAKSCSPSPVSPQVQPQAADTISDSVAVPASLLGMRRGLNSRLEATAASSVKTRMQKLAEQRRRWDNDDMTDDIPESSLFSPMPSEEKAASPPRPLLSNASATPVGRRGRLANLAATICSWEDDVNHSFAKQNSVQEQPGTACLSKFSSASGASARINSSSVKQEATFCSQRDGDASLNKALSSSADDASLVNASISSSVKATSPVKSTTSITDAKSCEGQNPELLPKTPISPLKTGVSKPIVKSTLSQTVPSKGELSREICLQSQSKDKSTTPGGTGIKPFLERFGERCQEHSKESPARSTPHRTPIITPNTKAIQERLFKQDTSSSTTHLAQQLKQERQKELACLRGRFDKGNIWSAEKGGNSKSKQLETKQETHCQSTPLKKHQGVSKTQSLPVTEKVTENQIPAKNSSTEPKGFTECEMTKSSPLKITLFLEEDKSLKVTSDPKVEQKIEVIREIEMSVDDDDINSSKVINDLFSDVLEEGELDMEKSQEEMDQALAESSEEQEDALNISSMSLLAPLAQTVGVVSPESLVSTPRLELKDTSRSDESPKPGKFQRTRVPRAESGDSLGSEDRDLLYSIDAYRSQRFKETERPSIKQVIVRKEDVTSKLDEKNNAFPCQVNIKQKMQELNNEINMQQTVIYQASQALNCCVDEEHGKGSLEEAEAERLLLIATGKRTLLIDELNKLKNEGPQRKNKASPQSEFMPSKGSVTLSEIRLPLKADFVCSTVQKPDAANYYYLIILKAGAENMVATPLASTSNSLNGDALTFTTTFTLQDVSNDFEINIEVYSLVQKKDPSGLDKKKKTSKSKAITPKRLLTSITTKSNIHSSVMASPGGLSAVRTSNFALVGSYTLSLSSVGNTKFVLDKVPFLSSLEGHIYLKIKCQVNSSVEERGFLTIFEDVSGFGAWHRRWCVLSGNCISYWTYPDDEKRKNPIGRINLANCTSRQIEPANREFCARRNTFELITVRPQREDDRETLVSQCRDTLCVTKNWLSADTKEERDLWMQKLNQVLVDIRLWQPDACYKPIGKP [ANLN]	47	49.6	0.0107	-0.029	5.84	9.22
MFSQQQQQQLQQQQQQLQQLQQQQLQQQQLQQQQLLQLQQLLQQSPPQAPLPMAVSRGLPPQQPQQPLLNLQGTNSASLLNGSMLQRALLLQQLQGLDQFAMPPATYDTAGLTMPTATLGNLRGYGMASPGLAAPSLTPPQLATPNLQQFFPQATRQSLLGPPPVGVPMNPSQFNLSGRNPQKQARTSSSTTPNRKDSSSQTMPVEDKSDPPEGSEEAAEPRMDTPEDQDLPPCPEDIAKEKRTPAPEPEPCEASELPAKRLRSSEEPTEKEPPGQLQVKAQPQARMTVPKQTQTPDLLPEALEAQVLPRFQPRVLQVQAQVQSQTQPRIPSTDTQVQPKLQKQAQTQTSPEHLVLQQKQVQPQLQQEAEPQKQVQPQVQPQAHSQGPRQVQLQQEAEPLKQVQPQVQPQAHSQPPRQVQLQLQKQVQTQTYPQVHTQAQPSVQPQEHPPAQVSVQPPEQTHEQPHTQPQVSLLAPEQTPVVVHVCGLEMPPDAVEAGGGMEKTLPEPVGTQVSMEEIQNESACGLDVGECENRAREMPGVWGAGGSLKVTILQSSDSRAFSTVPLTPVPRPSDSVSSTPAATSTPSKQALQFFCYICKASCSSQQEFQDHMSEPQHQQRLGEIQHMSQACLLSLLPVPRDVLETEDEEPPPRRWCNTCQLYYMGDLIQHRRTQDHKIAKQSLRPFCTVCNRYFKTPRKFVEHVKSQGHKDKAKELKSLEKEIAGQDEDHFITVDAVGCFEGDEEEEEDDEDEEEIEVEEELCKQVRSRDISREEWKGSETYSPNTAYGVDFLVPVMGYICRICHKFYHSNSGAQLSHCKSLGHFENLQKYKAAKNPSPTTRPVSRRCAINARNALTALFTSSGRPPSQPNTQDKTPSKVTARPSQPPLPRRSTRLKT [CIZ1]	51.5	53.7	0.168	-0.24	0.59	2.85
MPAVSKGDGMRGLAVFISDIRNCKSKEAEIKRINKELANIRSKFKGDKALDGYSKKKYVCKLLFIFLLGHDIDFGHMEAVNLLSSNKYTEKQIGYLFISVLVNSNSELIRLINNAIKNDLASRNPTFMCLALHCIANVGSREMGEAFAADIPRILVAGDSMDSVKQSAALCLLRLYKASPDLVPMGEWTARVVHLLNDQHMGVVTAAVSLITCLCKKNPDDFKTCVSLAVSRLSRIVSSASTDLQDYTYYFVPAPWLSVKLLRLLQCYPPPEDAAVKGRLVECLETVLNKAQEPPKSKKVQHSNAKNAILFETISLIIHYDSEPNLLVRACNQLGQFLQHRETNLRYLALESMCTLASSEFSHEAVKTHIDTVINALKTERDVSVRQRAADLLYAMCDRSNAKQIVSEMLRYLETADYAIREEIVLKVAILAEKYAVDYSWYVDTILNLIRIAGDYVSEEVWYRVLQIVTNRDDVQGYAAKTVFEALQAPACHENMVKVGGYILGEFGNLIAGDPRSSPPVQFSLLHSKFHLCSVATRALLLSTYIKFINLFPETKATIQGVLRAGSQLRNADVELQQRAVEYLTLSSVASTDVLATVLEEMPPFPERESSILAKLKRKKGPGAGSALDDGRRDPSSNDINGGMEPTPSTVSTPSPSADLLGLRAAPPPAAPPASAGAGNLLVDVFDGPAAQPSLGPTPEEAFLSELEPPAPESPMALLADPAPAADPGPEDIGPPIPEADELLNKFVCKNNGVLFENQLLQIGVKSEFRQNLGRMYLFYGNKTSVQFQNFSPTVVHPGDLQTQLAVQTKRVAAQVDGGAQVQQVLNIECLRDFLTPPLLSVRFRYGGAPQALTLKLPVTINKFFQPTEMAAQDFFQRWKQLSLPQQEAQKIFKANHPMDAEVTKAKLLGFGSALLDNVDPNPENFVGAGIIQTKALQVGCLLRLEPNAQAQMYRLTLRTSKEPVSRHLCELLAQQF [AP2A1]	52	51.9	-0.103	-0.0177	0.878	2.23
MAAVDIRDNLLGISWVDSSWIPILNSGSVLDYFSERSNPFYDRTCNNEVVKMQRLTLEHLNQMVGIEYILLHAQEPILFIIRKQQRQSPAQVIPLADYYIIAGVIYQAPDLGSVINSRVLTAVHGIQSAFDEAMSYCRYHPSKGYWWHFKDHEEQDKVRPKAKRKEEPSSIFQRQRVDALLLDLRQKFPPKFVQLKPGEKPVPVDQTKKEAEPIPETVKPEEKETTKNVQQTVSAKGPPEKRMRLQ [MED6]	47.9	50	0.222	0.404	-0.569	-0.431
MMHFKSGLELTELQNMTVPEDDNISNDSNDFTEVENGQINSKFISDRESRRSLTNSHLEKKKCDEYIPGTTSLGMSVFNLSNAIMGSGILGLAFALANTGILLFLVLLTSVTLLSIYSINLLLICSKETGCMVYEKLGEQVFGTTGKFVIFGATSLQNTGAMLSYLFIVKNELPSAIKFLMGKEETFSAWYVDGRVLVVIVTFGIILPLCLLKNLGYLGYTSGFSLSCMVFFLIVVIYKKFQIPCIVPELNSTISANSTNADTCTPKYVTFNSKTVYALPTIAFAFVCHPSVLPIYSELKDRSQKKMQMVSNISFFAMFVMYFLTAIFGYLTFYDNVQSDLLHKYQSKDDILILTVRLAVIVAVILTVPVLFFTVRSSLFELAKKTKFNLCRHTVVTCILLVVINLLVIFIPSMKDIFGVVGVTSANMLIFILPSSLYLKITDQDGDKGTQRIWAALFLGLGVLFSLVSIPLVIYDWACSSSSDEGH [SLC38A1]	57.8	59.4	-0.24	-0.379	-1.68	-3.89
MAGYLRVVRSLCRASGSRPAWAPAALTAPTSQEQPRRHYADKRIKVAKPVVEMDGDEMTRIIWQFIKEKLILPHVDIQLKYFDLGLPNRDQTDDQVTIDSALATQKYSVAVKCATITPDEARVEEFKLKKMWKSPNGTIRNILGGTVFREPIICKNIPRLVPGWTKPITIGRHAHGDQYKATDFVADRAGTFKMVFTPKDGSGVKEWEVYNFPAGGVGMGMYNTDESISGFAHSCFQYAIQKKWPLYMSTKNTILKAYDGRFKDIFQEIFDKHYKTDFDKNKIWYEHRLIDDMVAQVLKSSGGFVWACKNYDGDVQSDILAQGFGSLGLMTSVLVCPDGKTIEAEAAHGTVTRHYREHQKGRPTSTNPIASIFAWTRGLEHRGKLDGNQDLIRFAQMLEKVCVETVESGAMTKDLAGCIHGLSNVKLNEHFLNTTDFLDTIKSNLDRALGRQ [IDH2]	53.7	54.1	-0.113	0.137	-0.161	0.659
MSYIPGQPVTAVVQRVEIHKLRQGENLILGFSIGGGIDQDPSQNPFSEDKTDKGIYVTRVSEGGPAEIAGLQIGDKIMQVNGWDMTMVTHDQARKRLTKRSEEVVRLLVTRQSLQKAVQQSMLS [TAX1BP3]	49.1	49.2	0.0294	0.277	1.74	1.25
DICER1	50.7	50.1	-0.07	-0.101	-0.0197	0.111

— the supplement of paper PMC5998384
